Measurements: patent publication US20070020227A1
One block for each molecule: values may come before it.

Assays:
Test in all cases: cell-based or functional assay
[1] = target: human IL-28 receptor on 293 HEK cells (transfected IL-28 receptor alpha subunit with endogenous CRF2-4) (human)
[2] = target: T1, zcyto20 (human IL-28A) (human) (UniProt Q8IZJ0)
T1 sequence: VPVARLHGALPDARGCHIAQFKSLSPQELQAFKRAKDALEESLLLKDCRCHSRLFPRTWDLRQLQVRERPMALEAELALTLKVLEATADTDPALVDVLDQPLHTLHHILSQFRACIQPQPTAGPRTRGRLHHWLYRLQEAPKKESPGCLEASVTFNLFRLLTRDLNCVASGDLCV

[3] = target: T2, zcyto24 (mouse IL-28, SEQ ID NO: 8) (mouse) (UniProt Q4VK74)
T2 sequence: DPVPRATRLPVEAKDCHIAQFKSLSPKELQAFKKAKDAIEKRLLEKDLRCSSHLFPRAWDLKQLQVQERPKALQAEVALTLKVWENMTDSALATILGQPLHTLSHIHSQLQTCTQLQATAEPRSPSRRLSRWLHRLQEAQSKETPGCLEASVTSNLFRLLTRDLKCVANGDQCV

[4] = target: zcyto21 (SEQ ID NO:15) (human) (UniProt Q8IU54)
UniProt Q8IU54, sequence (Q8IU54 other isoform, or with tags, fused parts or gaps): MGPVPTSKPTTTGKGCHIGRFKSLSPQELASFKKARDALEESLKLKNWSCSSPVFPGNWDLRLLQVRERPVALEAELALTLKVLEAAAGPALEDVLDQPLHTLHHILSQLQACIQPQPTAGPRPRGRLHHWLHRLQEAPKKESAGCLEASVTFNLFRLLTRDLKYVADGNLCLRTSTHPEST

human IL-28 receptor on 293 HEK cells (transfected IL-28 receptor alpha subunit with endogenous CRF2-4) (human), sequence (Q8IU57 whole entry, chain 1 of 2): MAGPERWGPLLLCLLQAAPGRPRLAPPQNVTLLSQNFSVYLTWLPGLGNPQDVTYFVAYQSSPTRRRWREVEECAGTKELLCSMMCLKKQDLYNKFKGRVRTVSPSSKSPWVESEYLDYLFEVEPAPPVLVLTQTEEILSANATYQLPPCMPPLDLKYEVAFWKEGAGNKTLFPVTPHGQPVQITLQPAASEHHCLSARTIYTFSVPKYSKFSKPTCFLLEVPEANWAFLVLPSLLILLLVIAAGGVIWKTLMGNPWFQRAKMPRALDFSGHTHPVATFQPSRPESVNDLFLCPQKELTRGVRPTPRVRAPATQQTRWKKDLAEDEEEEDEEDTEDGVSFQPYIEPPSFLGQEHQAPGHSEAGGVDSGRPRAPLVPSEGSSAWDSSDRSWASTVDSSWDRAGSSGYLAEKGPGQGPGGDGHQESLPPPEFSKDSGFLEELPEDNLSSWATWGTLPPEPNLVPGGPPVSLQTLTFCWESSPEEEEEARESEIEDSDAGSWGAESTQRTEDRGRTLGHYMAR
human IL-28 receptor on 293 HEK cells (transfected IL-28 receptor alpha subunit with endogenous CRF2-4) (human), sequence (Q08334 whole entry, chain 2 of 2, further chain): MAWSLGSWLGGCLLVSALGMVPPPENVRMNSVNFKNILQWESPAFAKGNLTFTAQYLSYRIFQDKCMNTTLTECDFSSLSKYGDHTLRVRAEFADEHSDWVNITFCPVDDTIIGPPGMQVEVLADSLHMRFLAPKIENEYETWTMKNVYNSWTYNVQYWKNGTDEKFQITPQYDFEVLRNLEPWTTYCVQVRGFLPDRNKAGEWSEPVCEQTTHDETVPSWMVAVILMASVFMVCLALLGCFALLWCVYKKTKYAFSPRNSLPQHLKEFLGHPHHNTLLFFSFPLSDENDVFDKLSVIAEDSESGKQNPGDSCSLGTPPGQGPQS

Molecule: human CRF2-4-Fc homodimer soluble receptor (Fc fusion)
- Percent Inhibition of Ligand-induced ISRE Signaling by Soluble Receptors (10 ng/ml ligand, 10 micrograms/ml soluble receptor) [2]: 80%
- Percent Inhibition of Ligand-induced ISRE Signaling by Soluble Receptors (10 ng/ml ligand, 10 micrograms/ml soluble receptor) [3]: 82%
- Percent Inhibition of Ligand-induced ISRE Signaling by Soluble Receptors (10 ng/ml ligand, 10 micrograms/ml soluble receptor) [4]: 79%

Molecule: zcyto10 (ligand)
- ISRE Signaling of Transfected 293 Cells (Fold Induction), ISRE-Luc./IL-28R, ligand 125 ng/ml (fold induction) [1]: 1

B2: human zcytor19-Fc homodimer soluble receptor (Fc fusion, not shown: a dimerising Fc or GST)
chain: RPRLAPPQNVTLLSQNFSVYLTWLPGLGNPQDVTYFVAYQSSPTRRRWREVEECAGTKELLCSMMCLKKQDLYNKFKGRVRTVSPSSKSPWVESEYLDYLFEVEPAPPVLVLTQTEEILSANATYQLPPCMPPLDLKYEVAFWKEGAGNKTLFPVTPHGQPVQITLQPAASEHHCLSARTIYTFSVPKYSKFSKPTCFLLEVPEANWA
- Percent Inhibition of Ligand-induced ISRE Signaling by Soluble Receptors (10 ng/ml ligand, 10 micrograms/ml soluble receptor) [2]: 92%
- Percent Inhibition of Ligand-induced ISRE Signaling by Soluble Receptors (10 ng/ml ligand, 10 micrograms/ml soluble receptor) [3]: 90%
- Percent Inhibition of Ligand-induced ISRE Signaling by Soluble Receptors (10 ng/ml ligand, 10 micrograms/ml soluble receptor) [4]: 45%

Continued, values first:

- ISRE Signaling of Transfected 293 Cells (Fold Induction), ISRE-Luc./IL-28R, ligand 100 ng/ml (fold induction) [1]: 0.5
Molecule: huIL10 (from UniProt P22301 19-178) (ligand)

- Percent Inhibition of Ligand-induced ISRE Signaling by Soluble Receptors (10 ng/ml ligand, 10 micrograms/ml soluble receptor) [2]: 16%
- Percent Inhibition of Ligand-induced ISRE Signaling by Soluble Receptors (10 ng/ml ligand, 10 micrograms/ml soluble receptor) [3]: 47%
- Percent Inhibition of Ligand-induced ISRE Signaling by Soluble Receptors (10 ng/ml ligand, 10 micrograms/ml soluble receptor) [4]: 16%
Molecule: human zcytor19-Fc/human CRF2-4-Fc heterodimer soluble receptor (Fc fusion)

- Percent Inhibition of Ligand-induced ISRE Signaling by Soluble Receptors (10 ng/ml ligand, 10 micrograms/ml soluble receptor) [2]: 91%
- Percent Inhibition of Ligand-induced ISRE Signaling by Soluble Receptors (10 ng/ml ligand, 10 micrograms/ml soluble receptor) [3]: 89%
- Percent Inhibition of Ligand-induced ISRE Signaling by Soluble Receptors (10 ng/ml ligand, 10 micrograms/ml soluble receptor) [4]: 103%
B1: murine zcytor19-Ig homodimer soluble receptor (Fc fusion, part only; not given: Ig portion, UniProt Q8CGK5 21-227, looked up, part only)
chain, part: RPRLAPPRNVTLFSQNFTVYLTWLPGLGSPPNVTYFVTYQSYIKTGWRPVEHCAGIKALVCPLMCLKKLNLYSKFKGRVQAASAHGRSPRVESRYLEYLFDVELAPPTLVLTQMEKILRVNATYQLPPCMPSLELKYQVEFWKEGLGSKTLFPDTPYGQPVQIPLQQGASRRHCLSARTVYTLIDIKYSQFSEPSCIFLEAPGDKRA

- ISRE Signaling of Transfected 293 Cells (Fold Induction), ISRE-Luc./IL-28R, ligand 125 ng/ml (fold induction) [1]: 104
B3: IL-28B (SEQ ID NO: 6) (ligand)
chain: VPVARLRGALPDARGCHIAQFKSLSPQELQAFKRAKDALEESLLLKDCKCRSRLFPRTWDLRQLQVRERPVALEAELALTLKVLEATADTDPALGDVLDQPLHTLHHILSQLRACIQPQPTAGPRTRGRLHHWLHRLQEAPKKESPGCLEASVTFNLFRLLTRDLNCVASGDLCV
